Measured values taken from article PMC4498735, “Fibulin-1C, C1 Esterase Inhibitor and Glucose Regulated Protein 75 Interact with the CREC Proteins, Calumenin and Reticulocalbin” (PLoS ONE, 2015).

T1: GST-fibulin-1C (UniProt P23142-4 33-683)
T1 construct: fibulin-1C, amino acids 33-683, cloned into pGEX-4T3; the C variant has 683 amino acids; also called recombinant GST-fibulin-1C; source: E. coli, purified (glutathione-sepharose, Superdex 200)
T1 sequence (looked up): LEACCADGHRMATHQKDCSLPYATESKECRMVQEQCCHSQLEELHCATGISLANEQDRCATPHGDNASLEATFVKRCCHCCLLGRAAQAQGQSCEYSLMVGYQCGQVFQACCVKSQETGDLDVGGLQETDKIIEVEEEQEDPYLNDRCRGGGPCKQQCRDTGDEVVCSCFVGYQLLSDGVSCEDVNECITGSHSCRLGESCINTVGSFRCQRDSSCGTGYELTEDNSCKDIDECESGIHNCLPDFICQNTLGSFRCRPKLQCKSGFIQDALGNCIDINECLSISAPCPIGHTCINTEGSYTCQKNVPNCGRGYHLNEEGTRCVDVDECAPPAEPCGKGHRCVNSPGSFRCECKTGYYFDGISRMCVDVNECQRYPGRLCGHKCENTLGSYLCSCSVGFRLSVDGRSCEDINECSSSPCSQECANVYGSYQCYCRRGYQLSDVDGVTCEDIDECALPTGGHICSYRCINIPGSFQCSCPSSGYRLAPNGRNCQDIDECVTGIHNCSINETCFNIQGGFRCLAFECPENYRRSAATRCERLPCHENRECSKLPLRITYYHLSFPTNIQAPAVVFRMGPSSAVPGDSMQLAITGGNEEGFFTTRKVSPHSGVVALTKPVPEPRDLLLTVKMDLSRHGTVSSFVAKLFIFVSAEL

T2: C1 esterase inhibitor (commercial, Calbiochem) (UniProt P05155 23-500)
T2 construct: source: bought: Calbiochem
T2 sequence (looked up): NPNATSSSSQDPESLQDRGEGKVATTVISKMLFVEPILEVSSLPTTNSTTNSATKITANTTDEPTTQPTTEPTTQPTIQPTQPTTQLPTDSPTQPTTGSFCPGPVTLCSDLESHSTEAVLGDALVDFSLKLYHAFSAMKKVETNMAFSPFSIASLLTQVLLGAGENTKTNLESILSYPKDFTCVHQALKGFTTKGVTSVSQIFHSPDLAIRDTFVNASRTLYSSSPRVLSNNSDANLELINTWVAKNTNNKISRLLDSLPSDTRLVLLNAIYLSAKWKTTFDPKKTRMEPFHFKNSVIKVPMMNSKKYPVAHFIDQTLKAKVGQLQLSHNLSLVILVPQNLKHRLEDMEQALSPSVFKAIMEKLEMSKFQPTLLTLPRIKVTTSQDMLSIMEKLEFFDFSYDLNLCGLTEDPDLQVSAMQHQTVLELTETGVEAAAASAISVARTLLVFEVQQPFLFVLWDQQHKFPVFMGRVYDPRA

B1: recombinant reticulocalbin (natural protein)
chain: KPTVRKERVVRPDSELGERPPEDNQSFQYDHEAFLGKEDSKTFDQLSPDESKERLGKIVDRIDSDGDGLVTTEELKLWIKRVQKRYIYDNVAKVWKDYDRDKDEKISWEEYKQATYGYYLGNPAEFHDSSDHHTFKKMLPRDERRFKASDLDGDLTATREEFTAFLHPEEFEHMKEIVVLETLEDIDKNGDGFVDQDEYIADMFSHEDNGPEPDWVLSEREQFNDFRDLNKDGKLDKDEIRHWILPQDYDHAQAEARHLVYESDKNKDEMLTKEEILDNWNMFVGSQATNYGEDLTKNHDEL
modifications: Expressed in E. coli as a GST fusion; GST removed with thrombin. Species and limits are not printed: mouse is inferred because the plasmid came from Dr. Ozawa, whose original reticulocalbin clone was
B2: GST-calumenin (natural protein, UniProt O43852 20-315, looked up)
chain: KPTEKKDRVHHEPQLSDKVHNDAQSFDYDHDAFLGAEEAKTFDQLTPEESKERLGKIVSKIDGDKDGFVTVDELKDWIKFAQKRWIYEDVERQWKGHDLNEDGLVSWEEYKNATYGYVLDDPDPDDGFNYKQMMVRDERRFKMADKDGDLIATKEEFTAFLHPEEYDYMKDIVVQETMEDIDKNADGFIDLEEYIGDMYSHDGNTDEPEWVKTEREQFVEFRDKNRDGKMDKEETKDWILPSDYDHAEAEARHLVYESDQNKDGKLTKEEIVDKYDLFVGSQATDFGEALVRHDEF
notes: source: E. coli, purified (glutathione-sepharose, Superdex 200)
B3: recombinant calumenin (immobilised; construct not told) (natural protein, UniProt O43852 20-315, looked up)
chain: KPTEKKDRVHHEPQLSDKVHNDAQSFDYDHDAFLGAEEAKTFDQLTPEESKERLGKIVSKIDGDKDGFVTVDELKDWIKFAQKRWIYEDVERQWKGHDLNEDGLVSWEEYKNATYGYVLDDPDPDDGFNYKQMMVRDERRFKMADKDGDLIATKEEFTAFLHPEEYDYMKDIVVQETMEDIDKNADGFIDLEEYIGDMYSHDGNTDEPEWVKTEREQFVEFRDKNRDGKMDKEETKDWILPSDYDHAEAEARHLVYESDQNKDGKLTKEEIVDKYDLFVGSQATDFGEALVRHDEF
notes: calumenin; also called immobilised calumenin; source: E. coli, purified

How the values were obtained:
Details in all cases: both partners purified
GST-fibulin-1C [1] = target: T1, GST-fibulin-1C; assay: SPR; reticulocalbin immobilised; buffer with EDTA (10 mM Hepes, 150 mM NaCl, 20 mM EDTA and 0.005% Tween 20 pH 7.4)
[2] = target: T3, recombinant GST-grp75 (AAH00478.1) (human, UniProt P38646 47-679); assay: SPR; Biacore 2000/3000, CM5 chip, calumenin, GST-calumenin, reticulocalbin or GST amine-coupled; 25°C; 10 mM HEPES, 150 mM NaCl, 5 mM CaCl2, 1 mM EGTA, 0.005% Tween 20, pH 7.4; 1:1 Langmuir model; apparent KD from koff/kon
T3 construct: also called glucose regulated protein 75; mortalin; source: bought: Abnova (Taipei, Taiwan)
T3 sequence (P38646 47-679): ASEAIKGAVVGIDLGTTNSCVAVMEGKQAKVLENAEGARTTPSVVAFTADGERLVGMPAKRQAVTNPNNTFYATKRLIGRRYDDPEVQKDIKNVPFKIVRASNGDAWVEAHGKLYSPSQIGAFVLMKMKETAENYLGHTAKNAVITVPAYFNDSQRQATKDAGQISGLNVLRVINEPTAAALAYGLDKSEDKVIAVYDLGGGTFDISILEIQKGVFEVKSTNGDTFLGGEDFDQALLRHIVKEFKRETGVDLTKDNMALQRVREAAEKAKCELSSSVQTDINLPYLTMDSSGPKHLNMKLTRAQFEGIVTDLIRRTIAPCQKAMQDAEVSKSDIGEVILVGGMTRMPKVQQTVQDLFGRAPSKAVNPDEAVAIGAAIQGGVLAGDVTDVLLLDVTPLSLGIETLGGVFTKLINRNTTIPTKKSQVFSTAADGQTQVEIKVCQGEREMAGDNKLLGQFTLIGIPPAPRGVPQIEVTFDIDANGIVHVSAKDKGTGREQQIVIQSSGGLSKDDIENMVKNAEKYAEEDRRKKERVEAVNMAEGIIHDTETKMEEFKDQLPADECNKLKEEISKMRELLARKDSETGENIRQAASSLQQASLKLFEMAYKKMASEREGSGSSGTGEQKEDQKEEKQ

GST-fibulin-1C [3] = target: T1, GST-fibulin-1C; assay: as above
[4] = target: T2, C1 esterase inhibitor (commercial, …); assay: as above

Row | Binder | Kd (GST-fibulin-1C [1]) [nM] | Kd [2] [nM] | Kd (GST-fibulin-1C [3]) [nM] | Kd [4] [nM]
1 | B1 | ~50 | ~3 | ~60 | ~1000
2 | B2 |  |  | ~50 | ~150
3 | B3 |  | ~7 |  | 
